From article PMC9408938 come the findings set out here.

For test [1], the target named is T1, Human interferon-gamma receptor chain-1 (human (endogenous in WISH)) (UniProt P15260).
T1 sequence: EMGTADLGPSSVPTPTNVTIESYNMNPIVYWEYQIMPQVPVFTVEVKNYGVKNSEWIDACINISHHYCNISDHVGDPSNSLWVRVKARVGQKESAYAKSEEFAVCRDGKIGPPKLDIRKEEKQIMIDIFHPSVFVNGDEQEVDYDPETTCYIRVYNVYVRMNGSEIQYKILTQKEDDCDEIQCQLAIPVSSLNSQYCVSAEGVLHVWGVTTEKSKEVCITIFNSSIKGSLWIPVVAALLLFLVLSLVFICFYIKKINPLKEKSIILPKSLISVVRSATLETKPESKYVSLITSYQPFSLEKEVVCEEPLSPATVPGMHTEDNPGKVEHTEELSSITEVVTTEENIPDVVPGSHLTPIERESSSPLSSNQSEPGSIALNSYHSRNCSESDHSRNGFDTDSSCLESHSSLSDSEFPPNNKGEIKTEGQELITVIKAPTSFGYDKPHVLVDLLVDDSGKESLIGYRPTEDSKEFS

The target in test [2] is T1, Human interferon-gamma receptor chain-1 (human (endogenous in WISH)). This is another data set of the same source.

Human interferon-gamma, sequence (P01579 24-161): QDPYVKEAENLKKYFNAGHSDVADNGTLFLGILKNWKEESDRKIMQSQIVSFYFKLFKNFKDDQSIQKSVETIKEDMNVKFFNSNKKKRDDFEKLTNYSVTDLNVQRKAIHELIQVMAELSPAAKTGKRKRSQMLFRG

On to “Human interferon-gamma (from UniProt P01579 24-161) (ligand)”, for which, in test [1], the ratio of pSTAT1 to total STAT1 (Western blot, normalised to β-actin) in hIFN γ-stimulated WISH cells cultured under standard conditions (control) (ratio pSTAT1/STAT1) is 3.14 and the ratio of pSTAT1 to total STAT1 (Western blot, normalised to β-actin) in hIFN γ-stimulated WISH cells cultured with 30 mM NaClO3 (reduced HS sulfation) (ratio pSTAT1/STAT1) amounted to 1.7. Also, in test [2], the antiproliferative activity of hIFN γ (15 ng/mL) by modified kynurenine bioassay, optical density at 490 nm, WISH cells cultured with 30 mM NaClO3 worked out at 0.051 OD 490 nm; the antiproliferative activity of hIFN γ (15 ng/mL) by modified kynurenine bioassay, optical density at 490 nm, untreated WISH cells came to 0.377 OD 490 nm; the lowering of the biological activity (hIFN γ signal, kynurenine bioassay) in WISH cells cultured with NaClO3 against untreated cells is 86%.
